Assay results published in the supplement of paper PMC10065799, “High-throughput profiling of sequence recognition by tyrosine kinases and SH2 domains using bacterial peptide display” (eLife, 2023).

Legend:
[1] = target: FGFR1 (UniProt P11362); assay: phosphorylation enrichment, bacterial display (enrichment ratio); higher = better substrate or ligand; peptides without Tyr show the background
[2] = target: EPHB1 (UniProt P54762); assay: as above
[3] = target: EPHB2 (UniProt P29323); assay: as above
[4] = target: Fes (UniProt P07332); assay: as above
[5] = test system: Fer (mouse); assay: as above
[6] = test system: c-Abl (mouse); assay: as above
[7] = target: Jak2 (UniProt O60674); assay: as above
[8] = test system: c-Src; assay: as above
[9] = target: Hck (UniProt P08631); assay: as above
[10] = target: MERTK (UniProt Q12866); assay: as above
[11] = target: Fyn (UniProt P06241); assay: as above
[12] = target: FGFR3 (UniProt P22607); assay: as above
[13] = test system: AncSZ; assay: as above
[14] = target: Grb2 SH2 (UniProt P62993); assay: SH2 binding enrichment of the phosphorylated peptide, bacterial display (enrichment ratio); higher = better substrate or ligand; peptides without Tyr show the background
[15] = target: SHP2-C SH2; assay: as above
[16] = target: c-Src SH2; assay: as above
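Wherever SH2 binding enrichment of the phosphorylated peptide, bacterial display is given: peptide library displayed on the E. coli surface as eCPX fusions, selected cells deep-sequenced, score is each peptide's frequency after selection divided by its frequency in the input.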
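Wherever phosphorylation enrichment, bacterial display is given: 11-residue human phosphosite peptides and single-mutation variants displayed on the E. coli surface, counted by deep sequencing, each peptide's frequency after selection divided by its frequency in the unselected input library; frequency after pTyr selection over input frequency; kinase dosed for 20-30% of maximal phosphorylation in three min.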

EPHB1, sequence (P54762 whole entry, looked up): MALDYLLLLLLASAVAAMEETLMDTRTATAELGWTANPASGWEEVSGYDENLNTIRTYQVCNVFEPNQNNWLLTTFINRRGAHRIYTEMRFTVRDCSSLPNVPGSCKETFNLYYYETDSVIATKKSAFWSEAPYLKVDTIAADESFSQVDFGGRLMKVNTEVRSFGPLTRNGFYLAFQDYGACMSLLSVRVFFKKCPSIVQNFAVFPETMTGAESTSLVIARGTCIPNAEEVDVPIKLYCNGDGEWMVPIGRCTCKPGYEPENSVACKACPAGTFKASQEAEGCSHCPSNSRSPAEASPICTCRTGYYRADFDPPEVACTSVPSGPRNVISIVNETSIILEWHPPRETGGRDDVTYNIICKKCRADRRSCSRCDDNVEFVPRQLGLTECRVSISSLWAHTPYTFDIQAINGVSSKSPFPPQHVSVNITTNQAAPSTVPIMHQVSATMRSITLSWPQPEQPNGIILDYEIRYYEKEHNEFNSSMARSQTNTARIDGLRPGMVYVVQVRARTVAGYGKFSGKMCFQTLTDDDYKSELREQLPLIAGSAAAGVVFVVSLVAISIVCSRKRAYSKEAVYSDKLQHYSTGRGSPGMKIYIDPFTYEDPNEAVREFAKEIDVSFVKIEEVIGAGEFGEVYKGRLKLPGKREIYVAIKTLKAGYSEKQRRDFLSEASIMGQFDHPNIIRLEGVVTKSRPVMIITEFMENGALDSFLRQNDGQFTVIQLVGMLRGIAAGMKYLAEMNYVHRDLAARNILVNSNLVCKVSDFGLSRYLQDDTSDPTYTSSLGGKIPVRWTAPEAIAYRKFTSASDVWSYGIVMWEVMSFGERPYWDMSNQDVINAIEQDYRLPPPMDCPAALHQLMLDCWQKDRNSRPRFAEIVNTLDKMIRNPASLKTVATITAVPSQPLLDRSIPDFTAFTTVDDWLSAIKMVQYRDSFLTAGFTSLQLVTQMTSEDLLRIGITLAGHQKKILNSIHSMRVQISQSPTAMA
EPHB2, sequence (P29323 whole entry, looked up): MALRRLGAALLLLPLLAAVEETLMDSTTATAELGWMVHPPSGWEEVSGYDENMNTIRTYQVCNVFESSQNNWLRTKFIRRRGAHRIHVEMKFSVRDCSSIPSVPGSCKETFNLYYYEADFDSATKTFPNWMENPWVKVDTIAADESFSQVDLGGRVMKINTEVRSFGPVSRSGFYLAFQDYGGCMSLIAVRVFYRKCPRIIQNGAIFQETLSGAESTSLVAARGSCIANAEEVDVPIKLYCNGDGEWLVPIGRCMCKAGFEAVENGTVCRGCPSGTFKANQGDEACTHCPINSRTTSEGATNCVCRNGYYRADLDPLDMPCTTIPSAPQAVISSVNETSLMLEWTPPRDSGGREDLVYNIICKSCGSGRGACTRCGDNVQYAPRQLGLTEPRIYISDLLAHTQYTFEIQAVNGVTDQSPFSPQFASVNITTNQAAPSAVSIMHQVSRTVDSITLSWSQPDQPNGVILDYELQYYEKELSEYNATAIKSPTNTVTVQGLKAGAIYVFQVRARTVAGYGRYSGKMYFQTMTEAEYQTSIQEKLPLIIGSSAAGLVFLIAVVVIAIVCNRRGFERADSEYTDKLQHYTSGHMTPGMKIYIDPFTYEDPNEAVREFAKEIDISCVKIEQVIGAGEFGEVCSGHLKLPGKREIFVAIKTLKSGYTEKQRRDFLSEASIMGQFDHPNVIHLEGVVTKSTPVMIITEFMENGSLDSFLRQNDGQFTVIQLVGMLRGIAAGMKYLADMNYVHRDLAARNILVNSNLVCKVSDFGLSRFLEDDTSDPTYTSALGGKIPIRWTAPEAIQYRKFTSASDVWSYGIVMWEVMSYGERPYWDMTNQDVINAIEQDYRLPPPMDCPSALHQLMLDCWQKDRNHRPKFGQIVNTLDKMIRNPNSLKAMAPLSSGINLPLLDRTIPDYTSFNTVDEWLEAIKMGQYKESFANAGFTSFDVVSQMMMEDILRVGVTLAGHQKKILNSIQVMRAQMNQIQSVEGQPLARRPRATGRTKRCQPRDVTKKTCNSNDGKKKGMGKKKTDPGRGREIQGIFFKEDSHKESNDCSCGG
Fyn, sequence (P06241 whole entry, looked up): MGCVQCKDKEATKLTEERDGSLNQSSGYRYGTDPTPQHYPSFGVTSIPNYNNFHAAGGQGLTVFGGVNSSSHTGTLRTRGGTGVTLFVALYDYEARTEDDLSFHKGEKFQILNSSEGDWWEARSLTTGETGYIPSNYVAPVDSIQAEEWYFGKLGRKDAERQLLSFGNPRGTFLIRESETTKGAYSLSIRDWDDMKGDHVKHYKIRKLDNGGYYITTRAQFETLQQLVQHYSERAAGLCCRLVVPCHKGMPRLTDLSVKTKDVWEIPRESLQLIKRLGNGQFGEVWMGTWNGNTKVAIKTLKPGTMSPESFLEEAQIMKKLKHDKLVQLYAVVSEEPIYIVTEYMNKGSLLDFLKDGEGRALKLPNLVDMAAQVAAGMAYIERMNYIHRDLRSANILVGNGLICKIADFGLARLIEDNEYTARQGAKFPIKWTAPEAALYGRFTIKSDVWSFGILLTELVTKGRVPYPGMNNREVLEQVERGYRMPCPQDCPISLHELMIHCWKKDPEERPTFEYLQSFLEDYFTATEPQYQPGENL
FGFR3, sequence (P22607 whole entry, looked up): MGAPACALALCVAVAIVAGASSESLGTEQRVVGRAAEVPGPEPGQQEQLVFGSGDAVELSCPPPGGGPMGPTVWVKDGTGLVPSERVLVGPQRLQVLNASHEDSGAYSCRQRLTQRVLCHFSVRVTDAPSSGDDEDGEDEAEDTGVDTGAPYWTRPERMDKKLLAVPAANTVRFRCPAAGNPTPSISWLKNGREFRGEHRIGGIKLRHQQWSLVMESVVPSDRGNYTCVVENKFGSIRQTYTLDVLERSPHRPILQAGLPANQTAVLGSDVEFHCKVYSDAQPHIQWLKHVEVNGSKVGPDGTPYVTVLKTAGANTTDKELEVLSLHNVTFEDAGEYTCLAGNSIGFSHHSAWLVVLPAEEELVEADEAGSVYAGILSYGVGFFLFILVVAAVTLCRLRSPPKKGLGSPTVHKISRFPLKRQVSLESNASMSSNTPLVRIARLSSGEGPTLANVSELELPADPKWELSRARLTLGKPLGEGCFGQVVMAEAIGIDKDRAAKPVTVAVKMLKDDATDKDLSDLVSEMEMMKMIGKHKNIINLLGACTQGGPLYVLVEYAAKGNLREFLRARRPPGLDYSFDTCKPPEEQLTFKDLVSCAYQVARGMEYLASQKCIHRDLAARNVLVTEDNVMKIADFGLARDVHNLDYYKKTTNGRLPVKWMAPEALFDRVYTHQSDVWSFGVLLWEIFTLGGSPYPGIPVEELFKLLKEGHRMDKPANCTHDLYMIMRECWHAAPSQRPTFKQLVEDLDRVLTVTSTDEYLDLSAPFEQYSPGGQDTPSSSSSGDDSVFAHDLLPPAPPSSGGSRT
MERTK, sequence (Q12866 whole entry, looked up): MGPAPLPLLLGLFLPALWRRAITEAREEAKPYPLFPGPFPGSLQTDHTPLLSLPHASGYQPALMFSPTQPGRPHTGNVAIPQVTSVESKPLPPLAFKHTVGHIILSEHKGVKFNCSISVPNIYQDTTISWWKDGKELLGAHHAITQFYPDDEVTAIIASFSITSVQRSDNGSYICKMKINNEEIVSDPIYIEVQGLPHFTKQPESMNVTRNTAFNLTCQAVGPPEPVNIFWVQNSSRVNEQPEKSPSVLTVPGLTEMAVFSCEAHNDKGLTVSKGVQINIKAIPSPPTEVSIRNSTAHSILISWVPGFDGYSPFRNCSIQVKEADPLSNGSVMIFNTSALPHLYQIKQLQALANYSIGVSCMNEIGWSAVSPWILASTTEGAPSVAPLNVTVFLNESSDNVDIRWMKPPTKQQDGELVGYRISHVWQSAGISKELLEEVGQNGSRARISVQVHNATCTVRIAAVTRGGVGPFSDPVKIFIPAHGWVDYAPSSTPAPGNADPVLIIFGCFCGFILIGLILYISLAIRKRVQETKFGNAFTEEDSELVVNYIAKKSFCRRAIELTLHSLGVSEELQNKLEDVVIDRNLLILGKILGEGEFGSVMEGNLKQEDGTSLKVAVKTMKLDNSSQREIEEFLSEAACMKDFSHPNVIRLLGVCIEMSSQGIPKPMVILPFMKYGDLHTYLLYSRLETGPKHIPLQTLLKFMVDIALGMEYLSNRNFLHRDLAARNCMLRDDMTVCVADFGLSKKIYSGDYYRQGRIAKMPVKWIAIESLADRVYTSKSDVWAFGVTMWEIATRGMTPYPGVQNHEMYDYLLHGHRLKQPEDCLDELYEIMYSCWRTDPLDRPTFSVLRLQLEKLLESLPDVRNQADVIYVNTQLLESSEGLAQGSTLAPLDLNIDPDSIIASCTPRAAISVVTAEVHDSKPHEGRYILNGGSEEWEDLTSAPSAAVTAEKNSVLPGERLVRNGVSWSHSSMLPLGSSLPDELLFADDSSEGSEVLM
Hck, sequence (P08631 whole entry, looked up): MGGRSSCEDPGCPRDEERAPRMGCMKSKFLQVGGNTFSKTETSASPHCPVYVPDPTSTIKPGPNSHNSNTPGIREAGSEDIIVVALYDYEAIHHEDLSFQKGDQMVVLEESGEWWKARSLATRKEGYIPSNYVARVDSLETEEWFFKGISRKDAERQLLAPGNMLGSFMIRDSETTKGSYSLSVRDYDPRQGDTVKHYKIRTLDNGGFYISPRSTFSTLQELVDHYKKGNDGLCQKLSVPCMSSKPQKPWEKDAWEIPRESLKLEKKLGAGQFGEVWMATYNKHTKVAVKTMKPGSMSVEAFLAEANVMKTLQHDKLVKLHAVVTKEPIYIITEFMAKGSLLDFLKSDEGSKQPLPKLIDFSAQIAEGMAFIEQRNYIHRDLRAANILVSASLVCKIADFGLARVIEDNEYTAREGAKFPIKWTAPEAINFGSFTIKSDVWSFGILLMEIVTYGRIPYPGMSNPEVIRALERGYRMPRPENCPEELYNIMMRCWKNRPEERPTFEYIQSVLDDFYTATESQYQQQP

Row | Sequence | SH2 binding enrichment [14] | SH2 binding enrichment [15] | SH2 binding enrichment [16] | phosphorylation enrichment [1] | phosphorylation enrichment [2] | phosphorylation enrichment [3] | phosphorylation enrichment [4] | phosphorylation enrichment [5] | phosphorylation enrichment [6] | phosphorylation enrichment [7] | phosphorylation enrichment [8] | phosphorylation enrichment [9] | phosphorylation enrichment [10] | phosphorylation enrichment [11] | phosphorylation enrichment [12] | phosphorylation enrichment [13]
1 | DFRTTYVNANE [KCNH2_Y475_N470D] | 23.1 | 2.23 | 2.81 | 0.414 | 0.366 | 0.512 | 0.781 | 0.38 | 0.405 | 0.649 | 0.378 | 0.44 | 0.415 | 0.491 | 0.596 | 0.732
2 | DGFIDYAEFAK [MCFD2_Y138_YF] | 0.829 | 0.753 | 0.397 | 0.522 | 0.793 | 0.718 | 1.23 | 0.456 | 0.728 | 1.16 | 0.675 | 0.48 | 0.468 | 0.674 | 0.647 | 1.13
3 | DGSALYTGSAL [COL6A3_Y524] | 0.713 | 0.641 | 0.382 | 0.313 | 0.418 | 0.439 | 0.638 | 0.643 | 0.459 | 0.591 | 0.536 | 0.858 | 0.404 | 0.84 | 0.474 | 0.612
4 | DLLNSYIENEG [HSPA4L_Y600] | 1.04 | 0.656 | 0.693 | 0.528 | 0.573 | 0.561 | 0.999 | 0.545 | 0.585 | 1.17 | 0.343 | 0.484 | 0.375 | 0.53 | 0.875 | 0.996
5 | DLTQDSEEWKR [ORC6_Y232_Y232S] | 0.837 | 0.823 | 0.588 | 0.495 | 0.616 | 0.576 | 1.09 | 0.456 | 0.676 | 1.07 | 0.476 | 0.614 | 0.489 | 0.463 | 0.661 | 1.02
6 | DPEAAYTTRGG [EPHA3_Y779] | 0.872 | 0.588 | 0.357 | 0.376 | 0.466 | 0.385 | 0.717 | 0.45 | 0.559 | 0.652 | 0.475 | 0.468 | 0.374 | 0.531 | 0.507 | 0.629
7 | DQNVEYKGTVW [FHL1_Y117] | 0.866 | 0.577 | 0.424 | 0.455 | 0.558 | 0.545 | 1.17 | 0.425 | 0.843 | 0.938 | 0.488 | 0.466 | 0.496 | 0.496 | 0.755 | 0.95
8 | DRTVHYVDEKG [IFT140_Y216_G212R] | 0.979 | 0.916 | 0.503 | 0.413 | 0.431 | 0.436 | 0.742 | 0.368 | 0.46 | 0.597 | 0.341 | 0.441 | 0.393 | 0.429 | 0.515 | 0.666
9 | DSFATYFRRVL [H2BW1_Y84] | 0.797 | 0.584 | 0.373 | 0.496 | 0.607 | 0.677 | 1.2 | 0.426 | 0.798 | 1 | 0.532 | 0.82 | 0.448 | 0.472 | 0.703 | 1.35
10 | DSRRDYVSQFE [APOA1_Y53_G50R] | 0.803 | 0.524 | 0.531 | 0.542 | 0.456 | 0.447 | 0.709 | 0.387 | 0.567 | 0.645 | 0.43 | 0.478 | 0.464 | 0.409 | 0.503 | 0.762
11 | DTKDDYSALSV [IL17RB_Y457_N458S] | 0.956 | 0.771 | 0.609 | 0.715 | 0.627 | 0.663 | 1.09 | 0.642 | 0.815 | 0.928 | 0.473 | 0.661 | 0.441 | 0.56 | 0.828 | 1.05
12 | DVFLKHLNFAT [PDE6B_Y212_Y212H] | 0.842 | 0.884 | 0.52 | 0.483 | 0.547 | 0.545 | 0.914 | 0.414 | 0.552 | 0.799 | 0.374 | 0.478 | 0.466 | 0.507 | 0.66 | 0.785
13 | DVLEFCNSKKT [PAK1_Y131_Y131C] | 1 | 0.693 | 0.403 | 0.428 | 0.459 | 0.483 | 0.861 | 0.436 | 0.532 | 0.806 | 0.535 | 0.401 | 0.433 | 0.423 | 0.581 | 0.83
14 | EACPSYSHVVL [CHST6_Y168_R166P] | 1 | 1.75 | 1.52 | 0.538 | 0.492 | 0.521 | 0.702 | 6 | 0.54 | 0.527 | 0.507 | 0.463 | 0.486 | 0.411 | 0.51 | 0.7
15 | EAVKNYTDKRG [PBRM1_Y672] | 0.866 | 0.567 | 0.516 | 0.418 | 0.484 | 0.498 | 0.653 | 0.41 | 0.489 | 0.56 | 0.433 | 0.38 | 0.478 | 0.421 | 0.459 | 0.56
16 | EAVLHYKHQNQ [MTOR_Y1804] | 0.904 | 0.549 | 0.677 | 0.338 | 0.405 | 0.403 | 0.799 | 0.492 | 0.589 | 0.641 | 0.364 | 0.37 | 0.363 | 0.428 | 0.453 | 0.632
17 | EDNPEYMRLRN [ADD2_Y31_D28N] | 0.85 | 0.73 | 0.511 | 0.547 | 0.518 | 0.515 | 0.969 | 0.447 | 0.713 | 1.05 | 0.459 | 0.489 | 0.408 | 0.444 | 0.653 | 1.09
18 | EEEYEYMNRRR [ERBB3_Y1199_D1194E] | 0.777 | 0.618 | 0.605 | 0.429 | 0.324 | 0.402 | 0.804 | 0.342 | 0.329 | 0.882 | 0.36 | 0.546 | 0.356 | 0.332 | 0.583 | 1.15

Continued, in another order:

Row | SH2 binding enrichment [14] | SH2 binding enrichment [15] | SH2 binding enrichment [16] | Sequence | phosphorylation enrichment [1] | phosphorylation enrichment [2] | phosphorylation enrichment [3] | phosphorylation enrichment [4] | phosphorylation enrichment [5] | phosphorylation enrichment [6] | phosphorylation enrichment [7] | phosphorylation enrichment [8] | phosphorylation enrichment [9] | phosphorylation enrichment [10] | phosphorylation enrichment [11] | phosphorylation enrichment [12] | phosphorylation enrichment [13]
19 | 0.707 | 0.531 | 0.579 | DFPGIYSGFDD [POLR1C_Y33_N32I_YF] | 0.531 | 0.692 | 0.585 | 1.3 | 0.782 | 0.806 | 1.1 | 7.13 | 6.28 | 0.814 | 9.82 | 0.768 | 1.31
20 | 0.9 | 0.534 | 0.458 | DFPIGYPSYLA [TBCK_Y153] | 0.481 | 0.406 | 0.457 | 0.902 | 0.582 | 0.619 | 0.829 | 0.501 | 0.422 | 0.463 | 0.438 | 0.55 | 0.722
21 | 1.25 | 0.779 | 0.633 | DFTSRYLNASD [PKHD1_Y828] | 0.469 | 0.46 | 0.407 | 0.893 | 0.45 | 0.512 | 0.616 | 0.43 | 0.47 | 0.511 | 0.468 | 0.572 | 0.797
22 | 0.655 | 1.07 | 1.02 | DGNTRYSTFSE [TKTL1_Y318_D315N] | 0.402 | 0.473 | 0.48 | 0.969 | 0.383 | 0.746 | 1.01 | 0.569 | 0.418 | 0.339 | 0.319 | 0.533 | 0.789
23 | 0.758 | 0.435 | 0.47 | DLDFTYIFPNI [PTEN_Y27_L25F_YF] | 2.87 | 0.996 | 0.618 | 1.33 | 0.627 | 0.8 | 1.83 | 2.15 | 1.16 | 1 | 4.4 | 2.27 | 3.5
24 | 0.982 | 0.7 | 1.2 | DLNATYCTIQG [U2SURP_Y634_R635C] | 1.06 | 7.15 | 5.72 | 1.07 | 1 | 0.78 | 0.845 | 5.32 | 7.17 | 2.36 | 9.64 | 0.954 | 1.31
25 | 0.729 | 0.698 | 2 | DPTNTYARPAE [SGMS2_Y24] | 0.598 | 0.466 | 0.581 | 0.785 | 0.33 | 0.696 | 0.639 | 0.372 | 0.506 | 0.516 | 0.457 | 0.481 | 1.02
26 | 0.803 | 0.962 | 0.412 | DRPASYKKKSM [PDGFRA_Y768] | 0.324 | 0.343 | 0.367 | 0.517 | 0.306 | 0.546 | 0.494 | 0.409 | 0.39 | 0.418 | 0.365 | 0.347 | 0.383
27 | 0.939 | 1.18 | 0.552 | DSILVYQRKEQ [USH2A_Y1909_G1911R] | 0.517 | 0.455 | 0.546 | 0.744 | 0.487 | 0.55 | 0.7 | 0.626 | 0.55 | 0.475 | 0.506 | 0.579 | 0.636
28 | 0.863 | 0.641 | 0.464 | DVFVSYDFGKS [SORL1_Y139_YF] | 0.416 | 0.452 | 0.595 | 0.907 | 0.485 | 0.78 | 0.906 | 0.468 | 0.636 | 0.437 | 0.383 | 0.598 | 0.939
29 | 1.21 | 0.68 | 0.734 | DYYDLYGGEKF [PTPN11_Y66] | 13.4 | 6.42 | 6.92 | 1.2 | 1.61 | 0.74 | 2.7 | 4.69 | 5.08 | 3.7 | 5.73 | 12.9 | 2.92
30 | 0.735 | 0.76 | 0.39 | EAAFVYVISSA [WNT4_Y113_A114V] | 0.496 | 0.684 | 0.656 | 1.45 | 0.561 | 0.847 | 1.33 | 0.631 | 0.65 | 0.477 | 0.606 | 1.09 | 1.32
31 | 1.01 | 0.626 | 20.4 | EADRKYEEVAH [TPM3_Y163_R168H] | 0.493 | 0.587 | 0.423 | 1.04 | 0.521 | 0.703 | 0.938 | 0.421 | 0.531 | 0.474 | 0.506 | 0.633 | 1
32 | 0.891 | 0.833 | 0.525 | EDGRLYAVKRS [PKMYT1_Y136] | 0.465 | 0.417 | 0.496 | 0.856 | 0.444 | 0.692 | 0.728 | 0.485 | 0.612 | 0.433 | 0.486 | 0.633 | 0.753
33 | 0.713 | 0.594 | 0.409 | EDKSIYRRGAR [PRKCI_Y125] | 0.435 | 0.315 | 0.425 | 0.669 | 0.356 | 0.644 | 0.614 | 0.593 | 0.429 | 0.621 | 0.351 | 0.696 | 0.674
